Here are results for one substance from patent publication US20240002820A1.

In the assay the target is Uracil DNA glycosylase (UNG), endogenous in HuH-7 and U-2OS cells (UniProt P13051). Briefly: cell-based or functional assay.
UniProt P13051, sequence (P13051 whole entry): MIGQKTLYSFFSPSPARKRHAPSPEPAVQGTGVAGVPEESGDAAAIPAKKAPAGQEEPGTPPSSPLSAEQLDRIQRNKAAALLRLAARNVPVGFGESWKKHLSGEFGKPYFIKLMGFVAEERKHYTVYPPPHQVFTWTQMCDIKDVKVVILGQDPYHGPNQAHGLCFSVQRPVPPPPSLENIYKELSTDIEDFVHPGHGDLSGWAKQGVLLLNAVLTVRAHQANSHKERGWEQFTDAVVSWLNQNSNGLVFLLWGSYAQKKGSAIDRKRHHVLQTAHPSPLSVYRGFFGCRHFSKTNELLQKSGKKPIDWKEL

On to “Uracil Glycosylase Inhibitor (UGI), overexpressed from plasmid pCDNA3.1-UGI (from UniProt P14739 1-84)”, for which the Fold change relative to GFP in % of edited reads, C-to-A/G or indel, HuH-7 cells, BC22 + UGI overexpression (fold change relative to GFP) was -4.53; the Fold change relative to GFP in % of edited reads, C-to-A/G or indel, HuH-7 cells, BC22 + UGI overexpression + siRNA against UNG (fold change relative to GFP) was -4.76; the Fold change relative to GFP in % of edited reads, C-to-A/G or indel, HuH-7 cells, BC27 + UGI overexpression (fold change relative to GFP) is -9.3; the Fold change relative to GFP in % of edited reads, C-to-A/G or indel, HuH-7 cells, BC27 + UGI overexpression + siRNA against UNG (fold change relative to GFP) is -10.8. Further, the Fold change relative to GFP in % of edited reads, C-to-A/G or indel, U-2OS cells, BC22 + UGI overexpression (fold change relative to GFP) was -2.97; the Fold change relative to GFP in % of edited reads, C-to-A/G or indel, U-2OS cells, BC22 + UGI overexpression + siRNA against UNG (fold change relative to GFP) is -3.46; the Fold change relative to GFP in % of edited reads, C-to-A/G or indel, U-2OS cells, BC27 + UGI overexpression (fold change relative to GFP) is -3.09; the Fold change relative to GFP in % of edited reads, C-to-A/G or indel, U-2OS cells, BC27 + UGI overexpression + siRNA against UNG (fold change relative to GFP) was -3.48. Further, the Fold change relative to GFP in % of edited reads, C-to-T, HuH-7 cells, BC22 + UGI overexpression (fold change relative to GFP) amounted to 1.56; the Fold change relative to GFP in % of edited reads, C-to-T, HuH-7 cells, BC22 + UGI overexpression + siRNA against UNG (fold change relative to GFP) stood at 1.57; the Fold change relative to GFP in % of edited reads, C-to-T, HuH-7 cells, BC27 + UGI overexpression (fold change relative to GFP) was 2.13; the Fold change relative to GFP in % of edited reads, C-to-T, HuH-7 cells, BC27 + UGI overexpression + siRNA against UNG (fold change relative to GFP) came out at 2.15. For the same substance, the Fold change relative to GFP in % of edited reads, C-to-T, U-2OS cells, BC22 + UGI overexpression (fold change relative to GFP) was determined as 1.21; the Fold change relative to GFP in % of edited reads, C-to-T, U-2OS cells, BC22 + UGI overexpression + siRNA against UNG (fold change relative to GFP) came out at 1.22; the Fold change relative to GFP in % of edited reads, C-to-T, U-2OS cells, BC27 + UGI overexpression (fold change relative to GFP) came out at 1.92; the Fold change relative to GFP in % of edited reads, C-to-T, U-2OS cells, BC27 + UGI overexpression + siRNA against UNG (fold change relative to GFP) was 1.97. For the same substance, the Share of total edits that are C-to-T-only edits, HuH-7 cells, BC22 or BC27 + UGI overexpression stood at 94%.
